{
  "source": "patent US20070014785A1",
  "molecular_target": "human CD20 (entire coding sequence, expressed on the cell surface after LTR-CD20-LTR retroviral transduction) (human) (UniProt P11836)",
  "sequence (P11836 whole entry)": "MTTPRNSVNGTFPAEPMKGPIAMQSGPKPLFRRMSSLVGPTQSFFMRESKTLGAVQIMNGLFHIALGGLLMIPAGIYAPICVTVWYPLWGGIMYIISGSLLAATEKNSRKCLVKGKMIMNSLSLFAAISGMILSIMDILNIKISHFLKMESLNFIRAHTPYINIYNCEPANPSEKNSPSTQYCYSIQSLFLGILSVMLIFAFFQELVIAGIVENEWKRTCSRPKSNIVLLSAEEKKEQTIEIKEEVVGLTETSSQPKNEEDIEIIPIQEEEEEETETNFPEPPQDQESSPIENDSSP",
  "assay": "cell-based or functional assay",
  "data": [
    {"substance": "Rituximab (Roche), humanised monoclonal antibody against CD20", "values": [
      {"measurement": "% specific lysis, Rituximab alone (Donor 1, 30% CD3/CD20+ lymphocytes)", "result": 0, "unit": "%"},
      {"measurement": "% specific lysis, Rituximab alone (Donor 2, 23% CD3/CD20+ lymphocytes)", "result": 0, "unit": "%"},
      {"measurement": "% specific lysis, Rituximab alone (Donor 3, 15% CD3/CD20+ lymphocytes)", "result": 0, "unit": "%"},
      {"measurement": "% specific lysis, Rituximab plus complement (Donor 1, 30% CD3/CD20+ lymphocytes)", "result": 33, "unit": "%"},
      {"measurement": "% specific lysis, Rituximab plus complement (Donor 2, 23% CD3/CD20+ lymphocytes)", "result": 35, "unit": "%"},
      {"measurement": "% specific lysis, Rituximab plus complement (Donor 3, 15% CD3/CD20+ lymphocytes)", "result": 18, "unit": "%"},
      {"measurement": "death of the CD3/CD20+ cells after one hour exposure (complement-dependent cytotoxicity)", "result": 90, "unit": "%"}
    ]}
  ]
}
